Measured values published in patent publication US20220177587A1, “METHODS AND USES OF VARIANT CD80 FUSION PROTEINS AND RELATED CONSTRUCTS” (Alpine Immune Sciences, Inc., priority 2018, published 2022).

Assays:
CD28 (human) [1] = target: CD28 (human) (UniProt P10747); assay: flow cytometry, Jurkat cells (CD28)
human CTLA-4 (human) [2] = target: human CTLA-4 (human) (UniProt P16410); assay: flow cytometry, CHO cells expressing CTLA4
Target sequence in this assay (P16410 36-223): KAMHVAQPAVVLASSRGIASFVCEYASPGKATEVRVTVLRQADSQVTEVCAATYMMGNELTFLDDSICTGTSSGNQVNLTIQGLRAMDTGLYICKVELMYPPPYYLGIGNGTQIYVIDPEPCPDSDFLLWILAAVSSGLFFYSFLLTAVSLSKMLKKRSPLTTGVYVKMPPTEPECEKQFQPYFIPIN

PD-L1 (human) [3] = target: PD-L1 (human) (UniProt Q9NZQ7); assay: flow cytometry, CHO cells expressing PD-L1
Target sequence in this assay (Q9NZQ7 19-290): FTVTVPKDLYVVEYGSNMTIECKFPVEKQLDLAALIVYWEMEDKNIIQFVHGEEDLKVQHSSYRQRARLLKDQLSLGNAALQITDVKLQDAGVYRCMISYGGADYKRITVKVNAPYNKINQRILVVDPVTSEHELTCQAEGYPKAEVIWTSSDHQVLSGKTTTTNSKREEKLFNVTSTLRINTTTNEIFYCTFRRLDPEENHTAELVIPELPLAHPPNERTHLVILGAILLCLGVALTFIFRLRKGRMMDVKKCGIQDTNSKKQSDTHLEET

human CTLA-4 (human) [4] = target: human CTLA-4 (human) (UniProt P16410); assay: flow cytometry, CHO cells stably expressing CTLA4
PD-L1 (human) [5] = target: PD-L1 (human) (UniProt Q9NZQ7); assay: flow cytometry, CHO cells stably expressing PD-L1
PD-L1 (human) [6] = target: PD-L1 (human) (UniProt Q9NZQ7); assay: flow cytometry, CHO cells expressing huPD-L1
Target sequence in this assay (Q9NZQ7 19-290): as above

human CTLA-4 (human) [7] = target: human CTLA-4 (human) (UniProt P16410); assay: flow cytometry, CHO cells expressing huCTLA-4
Target sequence in this assay (P16410 36-223): as the sequence (P16410 36-223) above

CD28 (human) [8] = target: CD28 (human) (UniProt P10747)
PD-L1 (human) [9] = target: PD-L1 (human) (UniProt Q9NZQ7)
Target sequence in this assay (Q9NZQ7 19-290): as the sequence (Q9NZQ7 19-290) above

Sequence of wild-type CD80 IgV-Fc (inert), as in Example 12 (Fc fusion) (chain): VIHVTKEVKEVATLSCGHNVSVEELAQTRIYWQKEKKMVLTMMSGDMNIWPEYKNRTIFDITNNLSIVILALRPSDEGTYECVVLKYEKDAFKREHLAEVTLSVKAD
Sequence of wild-type CD80 IgV (SEQ ID NO: 150)-Fc (inert) with GSG4S linker (Fc fusion) (chain): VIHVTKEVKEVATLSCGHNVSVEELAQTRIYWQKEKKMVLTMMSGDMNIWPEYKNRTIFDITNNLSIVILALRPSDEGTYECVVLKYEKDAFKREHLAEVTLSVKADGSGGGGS

“CD80 V22D/E24D/E35D/M47V/V68M IgV-Fc (Fc fusion)” gave an MFI at 33.3 nM (CD28 (human) [1]) of 191 MFI and an MFI at 33.3 nM (human CTLA-4 (human) [2]) of 16900 MFI.

With “CD80 E35D/D46E/M47V/V68M/L85Q IgV-Fc (Fc fusion)” the MFI at 33.3 nM (human CTLA-4 (human) [2]) was 15500 MFI and the MFI at 33.3 nM (PD-L1 (human) [3]) was 1720 MFI.

With “variant CD80 IgV-Fc (inert) A26P/E35D/M47I/V68M/A71G/D90G (Fc fusion)” the MFI at 33.3 nM (CD28 (human) [1]) was 8190 MFI and the MFI at 33.3 nM (human CTLA-4 (human) [4]) was 19800 MFI.

In the case of “CD80 Q33R/E35D/M38I/M47L/V68M IgV-Fc (Fc fusion)”, the Fold change to WT CD80 (CD28 (human) [1]) is reported as 0.5 fold, the MFI at 33.3 nM (CD28 (human) [1]) is reported as 15 MFI and the MFI at 33.3 nM (human CTLA-4 (human) [2]) is reported as 107 MFI. It also gave a Fold change to WT CD80 (PD-L1 (human) [3]) of 320 fold and an MFI at 33.3 nM (PD-L1 (human) [3]) of 16500 MFI.

Fc control (Example 24) showed a Fold change to WT CD80 (CD28 (human) [1]) of 0.2 fold, an MFI at 11.1 nM (CD28 (human) [1]) of 26 MFI and a Fold change to WT CD80 (human CTLA-4 (human) [4]) of 0 fold. It also gave an MFI at 11.1 nM (human CTLA-4 (human) [4]) of 106 MFI, a Fold change to WT CD80 (PD-L1 (human) [5]) of 1.8 fold and an MFI at 11.1 nM (PD-L1 (human) [5]) of 158 MFI.

Work on “wild-type CD80 IgV (SEQ ID NO: 150)-Fc (inert) with GSG4S linker (Fc fusion)” yielded an MFI at 33.3 nM (PD-L1 (human) [5]) of 47 MFI.

Substance “CD80 (E88D/K89R/D90K/A91G/F92Y/K93R) ECD-Fc (Fc fusion)” has an MFI at 66.7 nM (CD28 (human) [1]) of 4050, an EC50 (human CTLA-4 (human) [4]) of 3.6 nM and an MFI at 66.7 nM (human CTLA-4 (human) [4]) of 26400. For the same substance, the MFI at 66.7 nM (PD-L1 (human) [5]) was 108.

Work on “WT CD80 ECD-Fc (R&D Systems) (Fc fusion)” yielded an EC50 (CD28 (human) [1]) of 164 nM, an MFI at 11.1 nM (CD28 (human) [1]) of 139 MFI and an EC50 (PD-L1 (human) [5]) of 31.2 nM. It also gave an MFI at 11.1 nM (PD-L1 (human) [5]) of 86 MFI.

Substance “variant CD80 IgV-Fc (inert) H18F/A26H/E35D/M47L/V68M/A71G/D90G (Fc fusion)” has an MFI at 33.3 nM (CD28 (human) [1]) of 8390 MFI, an MFI at 33.3 nM (human CTLA-4 (human) [4]) of 16400 MFI and an MFI at 33.3 nM (PD-L1 (human) [5]) of 20700 MFI.

In the case of “variant CD80 IgV-Fc M47V/N48K/V68M/K89N (Fc fusion)”, the MFI at 33.3 nM (PD-L1 (human) [6]) is reported as 23700 MFI.

With “CD80 S21P/E35D/K37E/D46E/M47I/V68M/R94L IgV-Fc (Fc fusion)” the MFI at 33.3 nM (CD28 (human) [1]) was 284 MFI and the MFI at 33.3 nM (human CTLA-4 (human) [2]) was 20100 MFI.

Substance “CD80 IgV-Fc E35D/M47I/T62S/L85Q/E88D (Fc fusion)” has an MFI at 33.3 nM (human CTLA-4 (human) [4]) of 8910 MFI and an MFI at 33.3 nM (PD-L1 (human) [5]) of 8420 MFI.

Substance “CD80 Q33L/E35D/M47V/T62S/V68M/L85M IgV-Fc (Fc fusion)” has an MFI at 33.3 nM (CD28 (human) [1]) of 15 MFI and an MFI at 33.3 nM (human CTLA-4 (human) [2]) of 86 MFI.

Work on “CD80 E35D/M47V/N48K/V68M/K89N IgV-Fc, GS(G4S)3 linker (Fc fusion)” yielded an MFI at 33.3 nM (CD28 (human) [1]) of 2110 MFI and an MFI at 33.3 nM (PD-L1 (human) [5]) of 24200 MFI.

With “CD80 (E35D/D46E/M47V/V68M/D90G/K93E) ECD-Fc (Fc fusion)” the EC50 (human CTLA-4 (human) [4]) was 10.5 nM, the MFI at 66.7 nM (human CTLA-4 (human) [4]) was 24600 and the MFI at 66.7 nM (PD-L1 (human) [5]) was 287.

Substance “variant CD80 IgV-Fc E35D/D46V/V68M/L85Q (Fc fusion)” has an MFI at 33.3 nM (PD-L1 (human) [6]) of 23600 MFI and an MFI at 33.3 nM (human CTLA-4 (human) [7]) of 32200 MFI.

CD80 IgV-Fc deltaE10-A98 (Fc fusion) was tested, and the MFI at 33.3 nM (CD28 (human) [1]) was 15 MFI, the MFI at 33.3 nM (human CTLA-4 (human) [4]) was 125 MFI and the MFI at 33.3 nM (PD-L1 (human) [5]) was 45 MFI.

Work on “variant CD80 IgV-Fc (inert) H18R/A26P/E35D/D46N/M47V/V68M/A71G/D90P (Fc fusion)” yielded an MFI at 33.3 nM (human CTLA-4 (human) [4]) of 17300 MFI and an MFI at 33.3 nM (PD-L1 (human) [5]) of 29300 MFI.

“CD80 E35D/M47V/N48K/V68M/K89N IgV-Fc, GS(G4S)5 linker (Fc fusion)” was tested, and the MFI at 33.3 nM (PD-L1 (human) [5]) was 22700 MFI.

With “CD80 E35D/M47V/V68M/L85M/Y87D IgV-Fc (Fc fusion)” the MFI at 33.3 nM (human CTLA-4 (human) [2]) was 13900 MFI and the MFI at 33.3 nM (PD-L1 (human) [3]) was 1720 MFI.

“CD80 T13R/Q33R/E35D/M38I/M47L/V68M/L85M/R94Q IgV-Fc (Fc fusion)” was tested, and the MFI at 33.3 nM (CD28 (human) [1]) was 15.2 MFI, the MFI at 33.3 nM (human CTLA-4 (human) [2]) was 19100 MFI and the MFI at 33.3 nM (PD-L1 (human) [3]) was 20400 MFI.

“CD80 (S21P/L70Q/D90G/I118V/T120S/T130A) ECD-Fc (Fc fusion)” showed an MFI at 66.7 nM (CD28 (human) [1]) of 282, an EC50 (human CTLA-4 (human) [4]) of 8.8 nM and an MFI at 66.7 nM (PD-L1 (human) [5]) of 103.

Work on “Wildtype CD80 ECD-Fc (effector Fc, Example 31) (Fc fusion)” yielded an MFI at 66.7 nM (CD28 (human) [1]) of 120, an EC50 (human CTLA-4 (human) [4]) of 4 nM and an MFI at 66.7 nM (human CTLA-4 (human) [4]) of 25300. The MFI at 66.7 nM (PD-L1 (human) [5]) was 104.

“CD80 E35D/D46V/M47L/V68M/L85Q/E88D IgV-Fc, GS(G4S)3 linker (Fc fusion)” was tested, and the MFI at 33.3 nM (CD28 (human) [1]) was 267 MFI and the MFI at 33.3 nM (PD-L1 (human) [5]) was 22600 MFI.

Substance “CD80 H18Y/E35D/M47L/V68M/A71G/L85M IgV-Fc (Fc fusion)” has an MFI at 33.3 nM (human CTLA-4 (human) [2]) of 19500 MFI and an MFI at 33.3 nM (PD-L1 (human) [3]) of 18700 MFI.

Substance “CD80 IgV-Fc H18Y/E35D/M47I/V68M/A71G/R94L (Fc fusion)” has an MFI at 33.3 nM (CD28 (human) [1]) of 1900 MFI and an MFI at 33.3 nM (PD-L1 (human) [5]) of 14500 MFI.

“CD80 H18Y/E35D/M47L/Y53F/V68M/A71G/K93R/E95V IgV-Fc (Fc fusion)” gave an MFI at 33.3 nM (CD28 (human) [1]) of 334 MFI, a Fold change to WT CD80 (human CTLA-4 (human) [2]) of 10.5 fold and an MFI at 33.3 nM (human CTLA-4 (human) [2]) of 18400 MFI. The MFI at 33.3 nM (PD-L1 (human) [3]) was 23400 MFI.

In the case of “wild-type CD80 IgV-Fc (inert), as in Example 12 (Fc fusion)”, the MFI at 33.3 nM (CD28 (human) [1]) is reported as 102 MFI, the MFI at 33.3 nM (human CTLA-4 (human) [4]) is reported as 1380 MFI and the MFI at 33.3 nM (PD-L1 (human) [5]) is reported as 165 MFI.

Work on “CD80 E35D/M47I/Y87Q/K89E IgV-Fc (inert) (Fc fusion)” yielded a Jurkat/IL2 reporter RLU at 50 nM, K562/OKT3/PD-L1 aAPC (CD28 (human) [8]) of 1580 RLU and a Jurkat/IL2 reporter RLU at 50 nM, K562/OKT3/PD-L1 aAPC (PD-L1 (human) [9]) of 1580 RLU.
